The source of these data is article PMC13334471 (Journal of molecular and cellular cardiology, 2026).

Common to all, as to assay: SPR
A general note: In SPR one partner is held on a chip, and binding of the other changes the refractive index at the surface.

Test [1] has as its target F-actin from rabbit back muscle (rabbit, UniProt P68135 1-377).
Test [2] deals with F-actin-Tm composite thin filament (rabbit, UniProt P68135 1-377; P58772 1-284).
The target of test [3] is Rabbit cardiac α-tropomyosin (rabbit, UniProt P58772 1-284).

Turning to SKTRGKAKVTGRWK (peptide, UniProt P45379-6 275-288, looked up), in test [1], the “Maximum Signal (Δpm)” value was 397 Δpm; the koff (as a rule, a measure of how fast the partners let go of each other) amounted to 0.0278 s⁻¹; the on-rate (kon) (usually the rate constant with which the complex forms) was 4150 M⁻¹ s⁻¹. Also, in test [2], the “Maximum Signal (Δpm)” value is 434 Δpm, the koff was found to be 0.0362 s⁻¹ and the on-rate (kon) is 5270 M⁻¹ s⁻¹. Also, in test [3], the “Maximum Signal (Δpm)” value was 420 Δpm, the off-rate (koff) was determined as 0.0374 s⁻¹ and the kon was found to be 5910 M⁻¹ s⁻¹.

Turning to SKTRGNAKVTGRWK (peptide, UniProt P45379-6 275-288, looked up) [Human cTnT-C14 peptide containing HCM-linked mutation K280N], in test [1], the “Maximum Signal (Δpm)” value is 112 Δpm, the koff came out at 0.0415 s⁻¹ and the on-rate constant (kon) was 3810 M⁻¹ s⁻¹. Moreover, in test [2], the “Maximum Signal (Δpm)” value is 109 Δpm, the off-rate (koff) is 0.041 s⁻¹ and the on-rate (kon) worked out at 6450 M⁻¹ s⁻¹. In addition, in test [3], the “Maximum Signal (Δpm)” value was 108 Δpm, the koff is 0.0351 s⁻¹ and the kon is 6600 M⁻¹ s⁻¹.

For the molecule SKTCGKAKVTGRWK (peptide, UniProt P45379-6 275-288, looked up) [Human cTnT-C14 peptide containing HCM-linked mutation R278C], in test [1], the “Maximum Signal (Δpm)” value was 144 Δpm, the koff was found to be 0.0169 s⁻¹ and the on-rate constant (kon) worked out at 1450 M⁻¹ s⁻¹. Besides, in test [2], the “Maximum Signal (Δpm)” value is 134 Δpm, the dissociation rate constant (koff) is 0.02 s⁻¹ and the association rate constant (kon) stood at 3930 M⁻¹ s⁻¹. In test [3], the “Maximum Signal (Δpm)” value was 95.4 Δpm, the koff came out at 0.0219 s⁻¹ and the on-rate (kon) worked out at 2500 M⁻¹ s⁻¹.

On to SKTRGKAKVTGCWK (peptide, UniProt P45379-6 275-288, looked up) [Human cTnT-C14 peptide containing HCM-linked mutation R286C], for which the “Maximum Signal (Δpm)” value in test [1] is 112 Δpm; in test [2], 126 Δpm; in test [3] it was 114 Δpm. The off-rate (koff) was found to be 0.0172 s⁻¹ in test [1], 0.0256 s⁻¹ in test [2] and 0.0166 s⁻¹ in test [3]. Also, the on-rate (kon) is 1570 M⁻¹ s⁻¹ in test [1], 3850 M⁻¹ s⁻¹ in test [2] and 3110 M⁻¹ s⁻¹ in test [3].
